Measured values reported in PMC3881179.
Read-outs that look alike come from different tables or passages of the source.

Columns and labels:
[1] = target: T1, STING C-terminal region (UniProt Q86WV6 181-379); experiment: SPR
[2] = target: T1, STING C-terminal region; experiment: pull-down
[3] = target: T2, STING C-terminal region (hSTING-C) (human, UniProt Q86WV6 152-379); experiment: fluorescence anisotropy
[4] = target: T2, STING C-terminal region (hSTING-C); experiment: fluorescence anisotropy; remark: listed apart in the source

T2 sequence (Q86WV6 152-379): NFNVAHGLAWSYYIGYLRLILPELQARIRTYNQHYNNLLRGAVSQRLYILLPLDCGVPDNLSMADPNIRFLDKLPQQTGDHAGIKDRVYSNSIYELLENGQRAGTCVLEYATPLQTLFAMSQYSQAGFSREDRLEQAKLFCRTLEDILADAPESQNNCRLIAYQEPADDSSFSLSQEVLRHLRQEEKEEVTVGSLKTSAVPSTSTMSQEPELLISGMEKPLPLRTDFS
T1 sequence (Q86WV6 181-379): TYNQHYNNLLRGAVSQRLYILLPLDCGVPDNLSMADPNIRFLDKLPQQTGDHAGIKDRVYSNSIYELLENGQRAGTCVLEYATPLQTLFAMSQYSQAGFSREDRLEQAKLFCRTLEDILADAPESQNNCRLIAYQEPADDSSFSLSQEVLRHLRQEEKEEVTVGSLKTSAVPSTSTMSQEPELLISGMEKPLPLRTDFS

B1: dsDNA90 (dsDNA)
DNA 1: TACAGATCTACTAGTGATCTATGACTGATCTGTACATGATCTACATACAGATCTACTAGTGATCTATGACTGATCTGTACATGATCTACA
DNA 2: TGTAGATCATGTACAGATCAGTCATAGATCACTAGTAGATCTGTATGTAGATCATGTACAGATCAGTCATAGATCACTAGTAGATCTGTA
Work on B1 yielded a Kd [1] of 13.7 µM.

B2: ssDNA90 (ssDNA)
DNA: TACAGATCTACTAGTGATCTATGACTGATCTGTACATGATCTACATACAGATCTACTAGTGATCTATGACTGATCTGTACATGATCTACA
B2: binds [2].

B3: dsDNA 18-mer (dsDNA)
DNA 1: TACAGATCTACTAGTGAT
DNA 2: ATCACTAGTAGATCTGTA
With B3 the Kd [3] was 337 ± 26 µM.

B4: dsDNA 30-mer (dsDNA)
DNA 1: TACAGATCTACTAGTGATCTATGACTGATC
DNA 2: GATCAGTCATAGATCACTAGTAGATCTGTA
In the case of B4, the Kd [4] is reported as 247 ± 38 µM.
